We go through 38 molecules from PMC314469, “Protein Interaction Networks by Proteome Peptide Scanning” (PLoS Biology, 2004).

Assay [1] deals with T1, amphyphisin SH3 (AMPH_HUMAN), P49418.
T1 chain: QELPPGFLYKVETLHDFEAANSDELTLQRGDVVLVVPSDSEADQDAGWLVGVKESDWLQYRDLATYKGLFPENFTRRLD
The experiment in a line: SPOT array.

In assay [2] the target is endophilin SH3 (SH3G2_HUMAN), Q99962. Briefly: SPOT array.

Turning to IIQELRRPKYTIYF [Q9Y4Z6 82-95], the normalised SPOT signal, Boehringer light units (BLU); mean over the file's lines of this peptide in assay [1] worked out at 32; in assay [2], 134.
For IQVAFRRPETPSSG [Q9H8D9 51-64] the same measures were 55.7 and 5.6.
IHSDPLRPRRETSH [P20849 240-253]: the normalised SPOT signal, Boehringer light units (BLU); mean over the file's lines of this peptide in assay [1] turned out to be 5480; in assay [2] it was 1340.
For ILGFPLRPNRGLYQ [O95972 116-129] the same measures were 8510 and 3140.
For ALQSPKRPRSPGSN [P78347 665-678] the same measures were 31.5 and 256.
For IPREPGRPGKGNYW [Q12950 67-80] the same measures were 59 and 32.8.
Turning to ALRGLVRPHKKRKK [Q9NY93 500-513], the normalised SPOT signal, Boehringer light units (BLU); mean over the file's lines of this peptide in assay [1] came to 54.6; in assay [2] it was 108.
As to IIRPPVRPPDPPSR [O60890 736-750], the normalised SPOT signal, Boehringer light units (BLU); mean over the file's lines of this peptide in assay [1] was 3250; in assay [2], 3430.
ILRPPRRPRKPKTL [Q9NYS8 1488-1501]: the normalised SPOT signal, Boehringer light units (BLU); mean over the file's lines of this peptide in assay [1] is 7790; in assay [2], 1310.
On the same counts, the results for IIRQIRRPKNVVLR [O94887 105-118] are 15.8 and 49.2.
On the same counts, the results for ALSLPEKPPRGEQG [O94819 607-621] are 727 and 112.
On the same counts, the results for IGVSPGRPGKSVLF [Q92918 675-688] are 131 and 128.
As for IPQRPSRPARRPLG [Q9HBL3 242-255], the values for the normalised SPOT signal, Boehringer light units (BLU); mean over the file's lines of this peptide in assay [1] and in assay [2] were 27600 and 84800, respectively.
On the same counts, the results for ILSPPRRPRHSQPA [Q8WYU9 180-193] are 344 and 797.
On the same counts, the results for IGYDFRRPLAQLRE [O60288 996-1009] are 41.5 and 205.
On the same counts, the results for ILPDFKRPASFGTY [O43844 486-499] are 30.9 and 23.1.
Take ILGSPARPPFSFQP [Q96C66 716-730]: the figures for the normalised SPOT signal, Boehringer light units (BLU); mean over the file's lines of this peptide in assay [1] and in assay [2] were 33 and 1550, respectively.
Consider IMFDLRRPPQNHTY [Q9HCC8 352-365], for which the normalised SPOT signal, Boehringer light units (BLU); mean over the file's lines of this peptide in assay [1] stood at 62.4; in assay [2] it was 230.
As to IQFVIKRPELLTEG [O95444 633-646], the normalised SPOT signal, Boehringer light units (BLU); mean over the file's lines of this peptide is 28.5 in assay [1] and 29.8 in assay [2].
For IGRNIARPWKLIYY [Q15361 592-605] the same measures were 205 and 314.
On the same counts, the results for IKKDLSRPQKPQLV [P31629 870-883] are 107 and 96.8.
IKTPPKRPGGRRRG [Q15910 343-356]: the normalised SPOT signal, Boehringer light units (BLU); mean over the file's lines of this peptide in assay [1] was 68.6; in assay [2], 628.
Consider IKILLRRPNEKKSK [P32246 223-236], for which the results for the normalised SPOT signal, Boehringer light units (BLU); mean over the file's lines of this peptide in assay [1] and in assay [2] were 37.1 and 81, respectively.
In the case of ILDTLRRPKPVVDP [Q9NQU5 43-56], the results for the normalised SPOT signal, Boehringer light units (BLU); mean over the file's lines of this peptide in assay [1] and in assay [2] were 26.6 and 0, respectively.
Consider IQEALKRPIKQKRK [Q9Y635 106-119], for which the normalised SPOT signal, Boehringer light units (BLU); mean over the file's lines of this peptide was found to be 92.2 in assay [1] and 89.8 in assay [2].
With IKFVIKRPELLTHS [P78347 534-547], the normalised SPOT signal, Boehringer light units (BLU); mean over the file's lines of this peptide in assay [1] was 28.9; in assay [2] it was 63.7.
For ILAKISRPKKRAKT [P48048 178-191] the same measures were 123 and 58.3.
IQEALKRPMKQKRK [Q92926 129-142]: the normalised SPOT signal, Boehringer light units (BLU); mean over the file's lines of this peptide turned out to be 71.7 in assay [1] and 109 in assay [2].
On the same counts, the results for IIPSPKRPVKLLSG [P04114 925-938] are 73.4 and 1060.
For IKILPARPIKESEY [Q9P2U9 65-78], the normalised SPOT signal, Boehringer light units (BLU); mean over the file's lines of this peptide in assay [1] is 118; in assay [2] it was 458.
For ILPSLSRPARSDQA [O43149 568-581] the same measures were 1320 and 366.
For ILGPPRRPSRHDNS [Q9NZN5 600-613], the normalised SPOT signal, Boehringer light units (BLU); mean over the file's lines of this peptide amounted to 17700 in assay [1] and 5800 in assay [2].
As for ALRWLRRPEDRAFS [Q13472 9-22], the normalised SPOT signal, Boehringer light units (BLU); mean over the file's lines of this peptide in assay [1] was 48; in assay [2], 353.
On the same counts, the results for ILLSISRPYKTKPT [Q9Y5J0 40-53] are 173 and 130.
With IIHVISRPLKAPPA [Q9NRY3 784-797], the normalised SPOT signal, Boehringer light units (BLU); mean over the file's lines of this peptide in assay [1] was found to be 83.7; in assay [2], 71.7.
For the molecule IKPFPSRPPVLTQE [Q9P2K1 327-341], the normalised SPOT signal, Boehringer light units (BLU); mean over the file's lines of this peptide in assay [1] was 48.4; in assay [2] it was 437.
For IQAPPPRPPKNQGL [Q9BYB6 252-266] the same measures were 861 and 2290.
Turning to IPERPLRPPSEKRA [Q9Y2W3 72-86], the normalised SPOT signal, Boehringer light units (BLU); mean over the file's lines of this peptide in assay [1] amounted to 11100; in assay [2], 7610.
